What was measured:
[1] = system: Tat-dependent gene expression from the HIV promoter; assay: Luciferase reporter assay, pLTR-Luc co-transfected with pTat and pHT in 293T cells; assay type: cell-based; conditions: 293T cells, pHT:pTat ratio 2:1
Excerpt: FIGS. 2A, 2B, and 2C. A HEXIM1-Tat fusion peptide inhibits gene expression from the HIV promoter. FIG. 2A. Structure of the HEXIM1-Tat fusion peptides used in the study. The functional domains used from HEXIM1 and Tat include a HEXIM1 Arginine Rich Motif (ARM, black box, residues 150-162) that binds RNA, a HEXIM1 inhibitory domain (ID, light grey box, residues 200-211) that inhibits CDK9 through a PYNT motif, and Tat transactivation domain (AD, dark grey box, residues 1-48) that binds to P-TEFb. The conceptual schemes are not drawn to scale. FIG. 2B. Transient expression of HT1 inhibits Tat-induced LTR-driven Luc expression. Upper panel: a schema depicts the reporter assay. A luciferase reporter gene (Luc) is under the control of the HIV promoter (P-HIV) and can be activated by ectopically expressed Tat. The Luc assay was used to titrate the inhibitory effect of HT1-3 on P-HIV transactivation by Tat. Middle panel: increasing amounts of m:HT1, m:HT2 or m:HT3 expressing plasmid (pHT) were co-transfected in 293T cells with a plasmid (pTat) expressing f:Tat and another (pLTR-Luc) expressing Luc under the control of the HIV promoter. Luc activity was plotted as % activity relative to control (empty vector used instead of pHT), depending on the transfected pHT:pTat ratio. Error bars in the graph represent standard deviation from triplicate experiments. FIG. 2C. Transient expression of HT1 inhibits Luc expression from HIV-1 NL43ΔenvLuc. Top schema depicts the reporter assay. A luciferase reporter gene (Luc) is inserted in a replication-defective HIV-1 molecular clone (pNL43ΔenvLuc) in which Luc and Tat are under the control of the HIV promoter (P-HIV). A Luc assay was used to titrate the inhibitory effect of HT1-3 on P-HIV transactivation by Tat. Bottom: increasing amounts of pHT1 were co-transfected in 293T cells with pNL43ΔenvLuc. Luc activity was plotted as % activity relative to control (empty vector used instead of pHT), depending on the transfected amounts of pHT1. Error bars in the graph represent standard deviation from triplicate experiments.
Luciferase (Luc) reporter assays were performed to titrate the potency of each chimera to inhibit Tat-dependent gene expression from the HIV promoter. Effector plasmids included pHT1-3 and pTat, which respectively expressed a Myc-epitope tag chimera (m:HT1-3) and a Flag-epitope tagged Tat (f:Tat). pHT1, pHT2 or pHT3 was transiently co-transfected in 293T cells with pTat and a Luc reporter gene under the control of the HIV promoter (P-HIV, expressed from the plasmid pLTR-Luc). […] Finally, HT1 lead to a 4-fold decrease in Luc expression at a 2:1 ratio. […] Similar results were obtained when co-transfecting pHT1-3 and pTat in NIH1 cells, which stably carry an LTR-Luc reporter gene. Thus, we selected HT1 for further investigation.

[2] = system: HIV promoter (P-HIV) transactivation by Tat; assay: Luc assay with replication-defective HIV-1 molecular clone pNL43ΔenvLuc in 293T cells; assay type: cell-based; conditions: transient expression
[3] = system: HIV TAR RNA; assay: RNA immunoprecipitation and RT-qPCR with TAR-specific primers in 293T cells; assay type: binding
Method: FIGS. 3A, 3B, 3C and 3D. HT1 prevents Tat from bringing active P-TEFb to TAR. FIG. 3A: HT1 inhibits the kinase activity of P-TEFb subunit CDK9. m:HT1 and/or f:Tat were transiently expressed in 293T cells. Cell lysates were used for IP using anti-Myc Ab (lanes 2-4), or control IgG (lane 1). Immunoprecipitates were incubated with ATP and recombinant GST-CTD proteins for in vitro kinase assay. Six replicate experiments were performed, and mean relative kinase activities are shown in the bar graph to the right. FIG. 3B: HT1 binds to TAR. m:HT1 or m:Tat (or empty vector, EV, as a control) was transiently co-expressed with TAR RNA-expressing pU16TAR in 293T cells. Cell lysates were used for IP using anti-Myc Ab or control IgG. RNA was purified from the immunoprecipitates and submitted to RT-qPCR using TAR-specific primers. Relative TAR enrichment was calculated as qPCR count using anti-Myc Ab minus using IgG, and normalized to EV. Error bars represent standard deviation from triplicate qPCR assays. […] Error bars represent standard deviation from triplicate qPCR assays. FIG. 3D: HT1 competes with Tat for TAR binding. m:HT1 and/or f:Tat were transiently co-expressed with TAR RNA-expressing pU16TAR in 293T cells. Cell lysates were used for IP using anti-Myc Ab or control IgG. RNA was purified from the immunoprecipitates and submitted to RT-qPCR using TAR-specific primers (upper panel). Relative TAR enrichment was calculated as qPCR count using anti-Myc Ab minus using IgG, and normalized to EV. Error bars represent standard deviation from triplicate qPCR assays.
Finally, since HEXIM1 ARM resembles the TAR-binding domain from Tat, we investigated whether HT1 could bind to HIV TAR. m:HT1 or m:Tat was co-expressed in 293T cells with TAR RNA, expressed under RNA Polymerase III dependent H1 promoter, and immunoprecipitated using anti-Myc Ab or IgG as a control. TAR RNAs co-immunoprecipitated with HT1 or Tat were quantified by RT-qPCR analysis. […] To test whether HT1 affects Tat-TAR interactions, increasing amounts of m:HT1 were also co-expressed with a fixed amount of f:Tat and TAR. […] As expected, HT1 also bound to endogenous 7SK snRNA.

[4] = system: HEXIM1, a bona fide target of P-TEFb; assay: HEXIM1 mRNA and protein expression in 293T cells; assay type: cell-based; conditions: increasing amounts of m:HT1
Excerpt: Since P-TEFb is a major transcription factor and regulates the expression of many cellular genes, we next assessed whether HT1 could impair host cell gene expression through inactivation of the kinase activity of CDK9. We first investigated how HT1 impacted the mRNA and protein expression levels of HEXIM1, a bona fide target of P-TEFb.

[5] = system: host cell gene expression in 293T cells; assay: mRNA-seq analysis in 293T cells; assay type: cell-based
Excerpt: The specificity of HT1 was further investigated by mRNA-seq analysis in 293T cells. Only 48 genes were differentially expressed upon ectopic expression of HT1, while knocking out CycT1 as a control impacted 1673 genes.

B1: HT1 (protein)
chain: KKKHRRRPSKKKRHWKPYYKLTWEEKKKFDEKQSLRASRIRAEMFAKGQPVAPYNTTQFLMDDHDQEEPDLVDMEPVDPYLEPWKHPGSQPRTACNNCYCKKCCFHCYACFTRKGLGISYG
modifications: left off: small tags and cut ends
For B1, the “decrease in Luc expression from the HIV promoter” value [1] was 4 fold, the “decrease in Luc expression” value [2] was 3 fold and the “immunoprecipitation of TAR RNA (in words)” value ([3]; 293T cells, anti-Myc Ab, RT-qPCR) was “immunoprecipitated TAR”. The “amounts of TAR RNA co-immunoprecipitated with f:Tat” value ([3]; fixed amount of f:Tat and TAR, increasing m:HT1, anti-Flag Ab) was “decreased progressively”, the “TAR bound, normalized by protein levels of m:HT1 and m:Tat” value ([3]; normalized to protein in input lysate) was “at least as much TAR as m:Tat” and the “expression level of HEXIM1 protein and mRNA” value [4] was “did not change”. The “genes differentially expressed upon ectopic expression” value [5] was 48 genes and the “7SK RNA fold-change” value ([5]; padj=9.6E−06) was 1.1.
